Reference: the RNAGym collection of RNA variant scans (doi:10.7554/elife.90254)

B1: LINE1-full (parent)
chain: UACGUAGGUGGUUUUCCCCUGAUAGUGCUAAGGGGGCCUGGAAGUUUGGACUGGGCAGAGCUCAACACAGCGUGGCAAAGUGGCUGUGGCUAGACUGCCUCUCUGGAUUCCUCGUCACUCAGCAGGGCAUCUCUGAGAGAAAUGCC

Variants of: B1
Assay: self-cleavage, relative activity (ratio to wild type); higher = more cleavage; in vitro, sequencing; the parent is a self-cleaving ribozyme
Work on G41C U132A yielded a self-cleavage of 1.35.
In the case of A59G A107U, the self-cleavage is reported as 0.04.
With U13A A121G the self-cleavage was 0.88.
For U102C G144C, the self-cleavage was 1.17.
A50G G89A gave a self-cleavage of 0.06.
A50G A57G gave a self-cleavage of 0.32.
In the case of U47C G54U, the self-cleavage is reported as 1.48.
For G58U G80A, the self-cleavage was 0.
A59U U104A showed a self-cleavage of 0.81.
Work on A30C G122A yielded a self-cleavage of 1.02.
For A121G A141U, the self-cleavage was 1.77.
A30U A64U showed a self-cleavage of 0.51.
Variant G49U A142G has a self-cleavage of 0.85.
With A59U U112A the self-cleavage was 0.83.
A42G U96G showed a self-cleavage of 0.
Variant U9A A43U has a self-cleavage of 0.61.
C66U A92G gave a self-cleavage of 0.02.
U46G G53U showed a self-cleavage of 1.73.
In the case of G60A A140U, the self-cleavage is reported as 0.03.
Work on G7C U91C yielded a self-cleavage of 0.
In the case of U46A A136U, the self-cleavage is reported as 1.18.
U52A U132C showed a self-cleavage of 1.48.
A22U U100C showed a self-cleavage of 1.54.
For A79U A107U, the self-cleavage was 1.74.
For A22G G82A, the self-cleavage was 1.94.
For U29C U143C, the self-cleavage was 1.75.
In the case of U87A U100C, the self-cleavage is reported as 0.09.
With G86A C118U the self-cleavage was 0.09.
For A121C U143C, the self-cleavage was 1.99.
G8A U15C showed a self-cleavage of 1.97.
Variant G74A U104C has a self-cleavage of 1.34.
For A42G U46G, the self-cleavage was 1.02.
In the case of U14C A107G, the self-cleavage is reported as 1.22.
Variant A94U A142G has a self-cleavage of 0.34.
With G55A U115C the self-cleavage was 0.63.
U102C C120U showed a self-cleavage of 1.71.
C38A A140G gave a self-cleavage of 1.28.
Work on A140G A142G yielded a self-cleavage of 1.17.
G7U A77U gave a self-cleavage of 1.04.
In the case of C3A A121G, the self-cleavage is reported as 0.53.
U20G U96C showed a self-cleavage of 0.26.
For A67G U109A, the self-cleavage was 0.43.
U104A gave a self-cleavage of 1.14.
Work on G4A A136G yielded a self-cleavage of 0.86.
With U20G the self-cleavage was 1.1.
For A2G G44U, the self-cleavage was 0.87.
With C19U A129U the self-cleavage was 1.84.
U1C U52A showed a self-cleavage of 0.88.
With G82A G114C the self-cleavage was 3.
U47A A94U gave a self-cleavage of 0.18.
G49A U119C gave a self-cleavage of 0.62.
With U96C G105A the self-cleavage was 0.06.
With U87G U112C the self-cleavage was 0.05.
Variant A31G G105A has a self-cleavage of 1.29.
A31G G105U gave a self-cleavage of 1.27.
A22U U102A gave a self-cleavage of 1.41.
In the case of A6G C56U, the self-cleavage is reported as 0.27.
With G44A U134C the self-cleavage was 0.92.
For U45C U109C, the self-cleavage was 0.61.
Work on G72A A78U yielded a self-cleavage of 1.81.
With A79C the self-cleavage was 1.57.
In the case of C63U U112C, the self-cleavage is reported as 0.29.
A65U A69U showed a self-cleavage of 0.03.
With G32A U85A the self-cleavage was 0.14.
Work on U1C C103U yielded a self-cleavage of 0.29.
With A77U U96C the self-cleavage was 0.1.
For U20A A129G, the self-cleavage was 0.97.
For U39C A50G, the self-cleavage was 0.77.
For A50G U143C, the self-cleavage was 0.95.
U13A U119A showed a self-cleavage of 1.06.
G34U U91A gave a self-cleavage of 0.49.
In the case of G135U U143C, the self-cleavage is reported as 1.63.
A59G A69G showed a self-cleavage of 0.1.
With U87C U102A the self-cleavage was 0.12.
With U14C G106U the self-cleavage was 0.66.
Variant A6G U46C has a self-cleavage of 0.8.
G55A U96C gave a self-cleavage of 0.04.
In the case of G10A A78G, the self-cleavage is reported as 0.91.
G4A G54A gave a self-cleavage of 0.6.
U26G G122A showed a self-cleavage of 1.81.
For U15G A65G, the self-cleavage was 0.1.
U15C U46A showed a self-cleavage of 1.41.
For C95A U130C, the self-cleavage was 0.
With A67U C101A the self-cleavage was 0.09.
In the case of U29C A77G, the self-cleavage is reported as 1.92.
For U29C G41U, the self-cleavage was 0.65.
U26G A31U showed a self-cleavage of 1.16.
With G34A A43G the self-cleavage was 0.73.
Work on U85C U109A yielded a self-cleavage of 0.12.
In the case of A92G C146U, the self-cleavage is reported as 0.07.
U5C C116A gave a self-cleavage of 1.29.
For U14A G34A, the self-cleavage was 0.78.
U46A A142U gave a self-cleavage of 1.19.
Work on C37G A65G yielded a self-cleavage of 0.
In the case of U9G U100A, the self-cleavage is reported as 0.86.
Work on C3U U46C yielded a self-cleavage of 0.92.
Variant U46G U96C has a self-cleavage of 0.74.
For A30U C61G, the self-cleavage was 0.08.
A65G A117U showed a self-cleavage of 0.04.
U15C U115C gave a self-cleavage of 1.68.
For U20C U100C, the self-cleavage was 1.69.
A57U A67C gave a self-cleavage of 0.07.
A57G A107G showed a self-cleavage of 1.01.
Variant U1C A79G has a self-cleavage of 0.86.
Work on A2G U5C yielded a self-cleavage of 1.41.
In the case of U15C U81C, the self-cleavage is reported as 1.43.
For A42G U119C, the self-cleavage was 1.35.
G53A G88A gave a self-cleavage of 0.07.
Work on U73A U134G yielded a self-cleavage of 0.45.
A50G U100C showed a self-cleavage of 0.98.
With A24G A31U the self-cleavage was 1.37.
U45C C120U gave a self-cleavage of 1.45.
For U20C C63U, the self-cleavage was 0.48.
Variant C28U U52C has a self-cleavage of 1.58.
In the case of U85A A129G, the self-cleavage is reported as 0.07.
Work on A50G A117G yielded a self-cleavage of 1.97.
U15C U87C gave a self-cleavage of 0.33.
U46C U96A showed a self-cleavage of 0.08.
With C17A A67G the self-cleavage was 0.56.
G8U C145U showed a self-cleavage of 2.38.
G35A A77G showed a self-cleavage of 1.92.
With G4A U20G the self-cleavage was 0.62.
In the case of U108C G126A, the self-cleavage is reported as 2.16.
C103A U112C gave a self-cleavage of 1.01.
Work on U12A U100C yielded a self-cleavage of 1.64.
A69G A79G gave a self-cleavage of 0.31.
Variant A69C A141G has a self-cleavage of 0.07.
In the case of U14C A140G, the self-cleavage is reported as 0.87.
With A2G G89A the self-cleavage was 0.11.
In the case of U9A G97A, the self-cleavage is reported as 0.12.
G4U U39A showed a self-cleavage of 1.95.
In the case of A65U C71U, the self-cleavage is reported as 0.05.
For U81A U130A, the self-cleavage was 1.3.
Variant G83A G144U has a self-cleavage of 1.55.
For U15C A141G, the self-cleavage was 1.51.
U132C U134A showed a self-cleavage of 0.73.
With U102A A117G the self-cleavage was 1.31.
With G127A A136U the self-cleavage was 1.65.
In the case of A64G A79G, the self-cleavage is reported as 0.24.
Work on A117G G122U yielded a self-cleavage of 1.52.
Work on U26A U130C yielded a self-cleavage of 1.24.
A69U U104C showed a self-cleavage of 0.05.
For A94U A124U, the self-cleavage was 0.35.
Work on U85C G144U yielded a self-cleavage of 0.19.
G10A A64G showed a self-cleavage of 0.22.
G74U A78U showed a self-cleavage of 2.2.
With U39C A92G the self-cleavage was 0.09.
In the case of G93A U109G, the self-cleavage is reported as 0.06.
For U9G A136G, the self-cleavage was 0.68.
U1A G106A showed a self-cleavage of 1.44.
A42G G80C showed a self-cleavage of 0.62.
Variant A124G C146A has a self-cleavage of 0.84.
Variant G40U A140U has a self-cleavage of 1.79.
For A50U, the self-cleavage was 1.
In the case of U14A A107G, the self-cleavage is reported as 1.1.
Variant A22G A138G has a self-cleavage of 1.25.
Variant C18G U115C has a self-cleavage of 1.67.
With U5C G135A the self-cleavage was 0.96.
C63U U119G showed a self-cleavage of 0.37.
For U87C G137A, the self-cleavage was 0.5.
In the case of C61U A64U, the self-cleavage is reported as 0.06.
U112C C113U showed a self-cleavage of 1.28.
G41U A140G showed a self-cleavage of 1.14.
U134C G144A gave a self-cleavage of 1.18.
A6G U87C gave a self-cleavage of 0.15.
In the case of A24U A94G, the self-cleavage is reported as 0.47.
U1A U46G gave a self-cleavage of 0.96.
